Experimental data as given in PMC10692146 (2023).
Where no end group is shown, it is not given here.

Experiments:
[1] = target: T1, reduced p38α (MAPK14), recombinant mouse protein kept with reducing agent (DTT or TCEP) (mouse, UniProt P47811 1-360); experiment: ITC
[2] = target: T1, reduced p38α (MAPK14), recombinant …; experiment: ITC; oxidized p38α re-reduced by dialysis with TCEP

T1 sequence (P47811 whole entry): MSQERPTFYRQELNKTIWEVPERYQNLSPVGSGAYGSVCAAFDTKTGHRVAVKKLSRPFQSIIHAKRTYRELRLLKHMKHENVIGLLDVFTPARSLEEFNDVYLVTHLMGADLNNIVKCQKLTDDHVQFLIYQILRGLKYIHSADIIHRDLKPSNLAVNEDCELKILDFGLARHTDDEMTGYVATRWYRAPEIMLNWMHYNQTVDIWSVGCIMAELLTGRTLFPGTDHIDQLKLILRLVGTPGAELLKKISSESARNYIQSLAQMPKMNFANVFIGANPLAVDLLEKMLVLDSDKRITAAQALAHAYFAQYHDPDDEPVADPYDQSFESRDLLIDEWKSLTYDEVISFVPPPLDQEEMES

Kd [1]: 1200 nM | Kd [2]: 2660 nM
Binder: RVYPVSVPYSSAQSTSKTSVTLSLVMPSQ (also: FITC label, end not given here) [FITC-TAB1 peptide (amino acids 384-412 of TAB1)]
